Publication PMC3565344, “Gamma-Aminobutyric Acid Production Using Immobilized Glutamate Decarboxylase Followed by Downstream Processing with Cation Exchange Chromatography” (International Journal of Molecular Sciences, 2013)
Several values for one entry are separate records, joined by “and”; a condition that tells them apart may be missing. Equal values may be shown once.

Target: the molecule itself
Test: SEC; size exclusion HPLC on TSKgel G3000SW; 20 uL purified GAD injected; isocratic elution at 1 mL/min for 30 min; 0.1 M sodium sulfate in 0.1 M phosphate buffer, pH 6.8; mix of monomer, dimer and tetramer

B1: Escherichia coli glutamate decarboxylase fused to six histidine at its C-terminus (enzyme, E. coli, UniProt P69910 1-466, looked up)
chain: MDKKQVTDLRSELLDSRFGAKSISTIAESKRFPLHEMRDDVAFQIINDELYLDGNARQNLATFCQTWDDENVHKLMDLSINKNWIDKEEYPQSAAIDLRCVNMVADLWHAPAPKNGQAVGTNTIGSSEACMLGGMAMKWRWRKRMEAAGKPTDKPNLVCGPVQICWHKFARYWDVELREIPMRPGQLFMDPKRMIEACDENTIGVVPTFGVTYTGNYEFPQPLHDALDKFQADTGIDIDMHIDAASGGFLAPFVAPDIVWDFRLPRVKSISASGHKFGLAPLGCGWVIWRDEEALPQELVFNVDYLGGQIGTFAINFSRPAGQVIAQYYEFLRLGREGYTKVQNASYQVAAYLADEIAKLGPYEFICTGRPDEGIPAVCFKLKDGEDPGYTLYDLSERLRLRGWQVPAFTLGGEATDIVVMRIMCRRGFEMDFAELLLEDYKASLKYLSDHPKLQGIAQQNSFKHT
notes: glutamate decarboxylase (GAD, EC 4.1.1.15) of E. coli, gene amplified from genomic DNA (GenBank M84025); The reverse primer puts an XhoI site (CTCGAG, would encode Leu-Glu) between the last GAD codon and the six histidines; this is my reading of the primer; also called GAD; EGAD; source: E. coli BL21 (DE3), purified (HisTrap HP, buffer exchange on Sephadex G-25); not shown: His6, C-terminal, kept
stoichiometry N: 2 and 4
